Test results as given in article PMC6048597 (Biochemistry, 2018).

Tests used:
Assay in all cases: ITC
hAIRE PHD C310L = molecular target: T1, hAIRE PHD C310L (human, UniProt O43918 294-343, C310L)
T1 chain (looked up): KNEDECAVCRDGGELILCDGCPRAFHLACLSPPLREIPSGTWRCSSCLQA

hKDM5B PHD V346A = molecular target: T2, hKDM5B PHD V346A (human, UniProt Q9UGL1 305-366, V346A)
T2 sequence (looked up): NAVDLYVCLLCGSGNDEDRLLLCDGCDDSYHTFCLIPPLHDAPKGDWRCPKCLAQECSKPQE

[1] = molecular target: T3, hBAZ2A PHD finger (residues 1673–1728), wild type (human, UniProt Q9UIF9 1673-1728)
T3 sequence (looked up): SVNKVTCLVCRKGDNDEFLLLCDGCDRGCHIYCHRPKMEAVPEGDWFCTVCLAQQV

B1: Histone H3 residues 1–11 (H3-1-11W) (peptide)
peptide: ARTKQTARKSTW
fold increase in affinity against the wild type AIRE PHD (hAIRE PHD C310L): ~15 fold | binding result (hKDM5B PHD V346A): binds | binding result [1]: binds
